Laboratory results: the RNAGym collection of RNA variant scans (doi:10.1073/pnas.2313332121)

B1: TPR t1 (parent)
chain: GACCAAUCUGCCCUCAGAGCUCGAGAACAUCUUCGGAUGCAGAGGAGGCAGGCUUCGGUGGCGCGAUAGCGCCAACGUCCUCAACCUCCAAUGCAUCCCACCACAUGAUGAUGCCUGAAGAGCCUUGGUUUUUUG

Variants of: B1
Assay: polymerase ribozyme fitness, log enrichment relative to wild type (log ratio); higher = more active; in vitro selection for triplet polymerase activity
Summary of the method: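 Fitness is a logarithmic measure of how a genotype enriched relative to the wild type, with replicate averages weighted by inverse variance. The logarithm uses base 2, and enrichment came from Illumina sequencing of input and output libraries. Those libraries were PCR-built, transcribed mutants of each subunit of a heterodimeric triplet polymerase ribozyme, passed through one triplicate in vitro selection round that included frozen incubation at −7 °C, gel excision of extended constructs and streptavidin-bead capture. Genotypes were kept only if they had ≥10 input reads and ≥1 read per output.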

Point of comparison: C8U C22A C62U, “polymerase ribozyme fitness (log ratio)” value -4.04. Against it:
- C8U C76A C79G C123G — higher, 0.407
- C8U C22G U55C C73A C98A A111G U112A — lower, -6.04
- U9A A16U G63A U129C — higher, -1.11
- U9G C12G G36A C101G — higher, -1.32
- C8U C73U U78C — higher, 0.277
- U9C U67C C82G U109C — lower, -6.64
- C8G U9G C12G C49G — higher, -0.256
- C8U C12A G19U U59C A75U G120A — higher, -1.37
- C8G G45C G51U G65A G113U C123U — lower, -7.22
- C8U G61U — higher, 0.435
- U9C G57U — higher, 0.0681
- C8U G51A C64U C104G G120C — lower, -6.76
- C8G G45A G117A C123A U130G — higher, 0.313
- U9C G48U G52C C94U — higher, -2.36
- C8U C70A C115U G117A — lower, -4.95
- U9A C53U C72U U92A G127A — within 0.2 log units, -3.85
- C8U U96A U125G U131C — higher, -1.53
- U9A A29U G63A C104A — higher, -3.02
- U9C C56G G60A C88G — higher, -3.64
- C8G U59G C82U C85A U126C — higher, -1.16
- C8U G61U C88G U109A U133C — lower, -4.61
- C8U C40A — higher, -1.07
- C8G G63A — higher, -0.627
- C8U G71A C76A G120U — lower, -5.96
- C8U U32A U96A A121C U130C — within 0.2 log units, -3.85
- C8U C49U C56U C70U C98A — lower, -6.59
- U9A A91C U92A C104U — higher, -2.18
- C8U G44A U109A — lower, -5.08
- C8G U14G G36U C62U C80U G120A — higher, 0.635
- C8U G52C — higher, -0.0551
- U9A G17A G113A — higher, -3.11
- U9G A18C C56G C72A — higher, -3.47
- U9C C80G — lower, -5.3
- C8U C62U U87A A121U — higher, 1.89
- C8U G127C — higher, -1.53
- U9C C12A C86A C102A C104U C124A — higher, -0.301
- U9A C99A — lower, -6.7
- U9C G60U C99A — lower, -6.14
- C8U A18U — higher, -1.03
- U9C C56A A95C U116A — higher, -2.12
- C8G U21A U54C C72A — higher, 0.0731
- C8U G44A — higher, -0.0714
- C8G G117C C124A — higher, -0.905
- C8U U38G G61U G93A — within 0.2 log units, -4.11
- U9A G39A C56A G60A — higher, 0.000466
- U9C G60U A105U A119G — higher, -1.05
- U9A C62G C79G — within 0.2 log units, -4.02
- C8U G36U U78C C88G C101A — higher, -3.59
- U9A C70U — higher, 0.25
- C8G U9C A41C A43U G52A U112A — higher, -0.712
- C8U G93U C102U G120C — higher, -1.01
- U9G C12G — higher, 0.483
- C8U G47C C62U — higher, -1.51
- U9A C49G G93C G120A U131A — higher, 0.443
- U9A C85A C97U G117C C124A — higher, -3.01
- C8G G48C A90U U112A — higher, 0.378
- U9A C34A G51A C70U A121C — lower, -6.25
- U9C G42U C53G C56A C73A C88U — higher, -1.43
- C8U A29G U112A — higher, -0.107
- C8U A18U C53U C79G G93C U130G — lower, -4.48
- C8U C53A C73G — higher, -0.563
- C8U C11G G93A — higher, -0.424
- C8U G10U C72U — higher, -0.279
- U9A G39C G61C U78A U87G G110U — higher, -2
- U9A U14G A41C G42U G60U — higher, -0.928
- C8U C70A — higher, -1.06
- C8U C70U — higher, -0.398
- C8U C70G — higher, -1.58
- U9C G51C U81G U92C — lower, -5.89
- C8U C53U C73U A105C U125G — higher, -1.94
- C8U C49G — higher, 0.889
- C8G G36A A121C U131G — higher, 1.28
- C8U C15A A119G — higher, 0.435
- C8U G42A A111G U116A A121G C124G — higher, -2.21
- U9A G42A C70U U129A — lower, -4.53
- U9A G71U U87A C89A U112G — lower, -5.05
- U9A C49A C72A A100U — higher, -0.384
- C8U A27U C76G U96G — higher, -3.38
- U9A A18U U92C — higher, -2.53
- U9A U55A C56A G63U — lower, -5.03
- C8G G39C C62A — higher, -0.386
- C8U C53U — higher, 0.0512
- C8U C88U — higher, 0.472
- U9C G25A — lower, -6.01
- C8U U14G G60A C73U — higher, -0.213
- U9G C13A U59A C72A — higher, -1.53
- U9A G63U — higher, -0.179
- C8G G58C A75C A108U U132A — lower, -5.79
- U9C C11U G17A — higher, -3.22
- C8G G35C A50U A118U — lower, -5.01
- U9C C114A U129C — higher, -1.92
- U9C C12U U81A C89A — higher, -1.67
- C8U C15G A46U G113A — lower, -5.27
- U9A G110U C124G — higher, -0.636
- C8U G65A — lower, -4.53
- U9A C12U A37G G61A — higher, 0.106
- C8U C76G U96A G120U U129C — higher, 0.287
- C8U C40U G51C G120C — higher, -1.98
- C8U C62U — higher, 0.699
- C8U C62A — higher, -0.587
- U9A C72U C123G U134G — higher, 2.67
- U9C C15A G45C G57C U59A G120A — higher, 0.743
- U9C C15A G44U G60C A91U A121G — higher, -1.08
- C8G U54G C64U C89G — lower, -4.42
- C8G G45C G48A U54G — higher, 0.0312
- U9A G19U A46U C56G U133G — lower, -4.95
- U9A G48C G77A C88U U112A — higher, 0.603
- C8G G47U — higher, 0.0211
- C8U U14G G17A A119G — higher, -0.996
- C8U A103C — lower, -4.8
- U9A C20G — higher, -2.47
- U9A A83G — higher, -0.27
- U9C C20A G69C C101A — lower, -6.63
- C8U C12U C101G A121C — higher, -0.571
- U9G C13A G48C C56A C72A U78A — higher, -1.24
- U9G A46U A91C G117A — higher, -1.93
- U9C C56U A83U G117A — higher, 0.635
- U9G A27U U133G — higher, -2.53
- C8U G19C G42U C62G A91G C123U — higher, -2.98
- C8U C40U C104A A119G — higher, -1.19
- C8U A74U C94A — higher, -0.334
- U9A G19A G52U A105C A111G G120A — lower, -5.2
- C8U G39C — higher, 0.0547
- U9A A16G G93A G117A — higher, -0.214
- U9C G10A A37U — higher, -0.108
- C8G G61C C72A C97U U130A — higher, 0.551
- U9C C49A C62U C123U — higher, 1.78
- C8G G71A C72A C102A — higher, -3.77
- C8U U78G C98U — higher, -0.651
- C8U C12U C49U U116A G120U C123U U126C — lower, -4.26
- C8G G63A G127C — higher, -1.12
- U9G C12G C28G C40A C85A A90C C104A G110C — lower, -4.42
- C8U A26U A83C G127C U133A — lower, -5.14
- U9A A46C A50C C82G — higher, -0.971
- C8U G39U C49G G63A U78A G128A — within 0.2 log units, -3.94
- C8U G58A G93U G117U G128C — lower, -5.28
- U9A U32A A37U A46C C56A C79A A111G — lower, -7.29
- C8U C34U G35A C101A C114U — lower, -6.15
- U9G A37C C40U C72U C123A — higher, -0.161
- C8U G69U C115A — higher, 1.59
- U9A G58C G71A U112A G113C G128U — higher, -3
- U9A G36A — higher, 0.00915
- U9A C12U C15A C53G U54C U106G — higher, -3.06
- C8G G44C A84C C115U — higher, -1.3
- C8U G52U U54G G63A A118G — higher, -3.26
- C8U G71U U78C C98U A119U — higher, -1.03
- U9A A26U — higher, -1.79
- U9A C79A G93U C101A — higher, -2.59
- C8U G61U A84C G120U — higher, 1.93
- U9A A27C U30C C56G A111U — lower, -4.95
- C8U A43C C94U U130A — higher, -2.21
- U9C C22U A46C A103G G113C — lower, -7.29
- U9G A18C C56G G120A U130A — higher, -1.19
- C8G U87A — higher, 0.833
- U9C C11U G17C A41U — lower, -4.76
- C8U A95G C102U U106A — higher, -3.3
- C8U C13G G110U — higher, -1.09
- U9A A90C — higher, -0.569
- C8G G47C C82U — higher, -1.06
- C8U G77C — higher, -0.262
- U9C C12G G60C U78C — higher, -1.6
- U9A C11A G42U G61U — higher, -1.6
- U9A U78C U96A C124U — higher, 1.26
- U9C G19A — higher, -1.95
- U9C G19C — higher, -2.29
- C8U G19C A43U C94A C115A G120U U133A — higher, -2.68
